According to article PMC12657763, “SH2-mediated steric occlusion of the C2 domain regulates autoinhibition of SHIP1 inositol 5-phosphatase” (The Journal of Biological Chemistry, 2025):
Values belong to the molecule of their own block, whether it stands above or below them. Where no end group is shown, it is not given here. [ ]: non-standard residue; d: D form. pY = N[C@@H](Cc1ccc(OP(=O)(O)O)cc1)C(=O)O

B3: mNG-SHIP1(FL) (enzyme, human, UniProt Q92835-2 1-1188, looked up)
chain: MVPCWNHGNITRSKAEELLSRTGKDGSFLVRASESISRAYALCVLYRNCVYTYRILPNEDDKFTVQASEGVSMRFFTKLDQLIEFYKKENMGLVTHLQYPVPLEEEDTGDDPEEDTESVVSPPELPPRNIPLTASSCEAKEVPFSNENPRATETSRPSLSETLFQRLQSMDTSGLPEEHLKAIQDYLSTQLAQDSEFVKTGSSSLPHLKKLTTLLCKELYGEVIRTLPSLESLQRLFDQQLSPGLRPRPQVPGEANPINMVSKLSQLTSLLSSIEDKVKALLHEGPESPHRPSLIPPVTFEVKAESLGIPQKMQLKVDVESGKLIIKKSKDGSEDKFYSHKKILQLIKSQKFLNKLVILVETEKEKILRKEYVFADSKKREGFCQLLQQMKNKHSEQPEPDMITIFIGTWNMGNAPPPKKITSWFLSKGQGKTRDDSADYIPHDIYVIGTQEDPLSEKEWLEILKHSLQEITSVTFKTVAIHTLWNIRIVVLAKPEHENRISHICTDNVKTGIANTLGNKGAVGVSFMFNGTSLGFVNSHLTSGSEKKLRRNQNYMNILRFLALGDKKLSPFNITHRFTHLFWFGDLNYRVDLPTWEAETIIQKIKQQQYADLLSHDQLLTERREQKVFLHFEEEEITFAPTYRFERLTRDKYAYTKQKATGMKYNLPSWCDRVLWKSYPLVHVVCQSYGSTSDIMTSDHSPVFATFEAGVTSQFVSKNGPGTVDSQGQIEFLRCYATLKTKSQTKFYLEFHSSCLESFVKSQEGENEEGSEGELVVKFGETLPKLKPIISDPEYLLDQHILISIKSSDSDESYGEGCIALRLEATETQLPIYTPLTHHGELTGHFQGEIKLQTSQGKTREKLYDFVKTERDESSGPKTLKSLTSHDPMKQWEVTSRAPPCSGSSITEIINPNYMGVGPFGPPMPLHVKQTLSPDQQPTAWSYDQPPKDSPLGPCRGESPPTPPGQPPISPKKFLPSTANRGLPPRTQESRPSDLGKNAGDTLPQEDLPLTKPEMFENPLYGSLSSFPKPAPRKDQESPKMPRKEPPPCPEPGILSPSIVLTKAQEADRGEGPGKQVPAPRLRSFTCSSSAEGRAAGGDKSQGKPKTPVSSQAPVPAKRPIKPSRSEINQQTPPTPTPRPPLPVKSPAVLHLQHSKGRDYRDNTELPHHGKHRPEEGPPGPLGRTAMQ

What was measured:
mNG-SHIP1(ΔCTD) (human) [1] = assay: single-molecule brightness distribution (TIRF-M); mNG-SHIP1 bound to pY peptides on supported lipid bilayers; 50 pM mNG-SHIP1(FL), 50 pM mNG-SHIP1(ΔCTD) or 20 pM mNG-mSHIP1(ΔCTD); particle brightness in the second frame of each trajectory
[2] = molecular target: pY-ITIM peptide …(pY)SLIK, conjugated to the supported membrane; assay: single-molecule TIRF-M dwell time on supported lipid bilayers; pY-ITIM peptide conjugated to the membrane (2% PI(3,4,5)P3, 2% MCC-PE, 96% DOPC); 20–50 pM mNG-SHIP1 in solution; 23 °C; single or double exponential fit of dwell times
mNG-SHIP1(ΔCTD) (human) [3] = assay: single-molecule photobleaching (TIRF-M); mNG-tagged SHIP1 bound to supported lipid bilayers with conjugated pY peptides (2% PI(3,4,5)P3, 2% MCC-PE, 96% DOPC); steps of photobleaching counted
[4] = molecular target: the molecule itself; assay: SEC; purified mNG-SHIP1(RBD) on a size-exclusion chromatography column, multiple protein concentrations
mNG-SHIP1(FL) = molecular target: B3; assay: TIRF-M membrane recruitment (bulk mNG fluorescence on supported lipid bilayers); pY-ITIM peptide conjugated to the membrane (2% PI(3,4,5)P3, 2% MCC-PE, 96% DOPC); 100 pM mNG-SHIP1 in solution; membrane density normalized to mNG-SHIP1(FL); conditions: both partners purified
[5] = molecular target: the molecule itself; assay: single-molecule photobleaching (TIRF-M); mNG-tagged SHIP1 bound to supported lipid bilayers with conjugated pY peptides (2% PI(3,4,5)P3, 2% MCC-PE, 96% DOPC); steps of photobleaching counted

B1: mNG-SHIP1(RBD) (domain or fragment, human, UniProt Q92835-2 151-290, looked up)
chain: ATETSRPSLSETLFQRLQSMDTSGLPEEHLKAIQDYLSTQLAQDSEFVKTGSSSLPHLKKLTTLLCKELYGEVIRTLPSLESLQRLFDQQLSPGLRPRPQVPGEANPINMVSKLSQLTSLLSSIEDKVKALLHEGPESPH
notes: the clone is UniProt Q92835 isoform 2, missing V117; A GGGGG linker stands between mNG and SHIP1; 42.7 kDa for the monomeric species; also called SHIP1(RBD) fused to an mNeonGreen (mNG); his10-mNG-GGGGG-SHIP1 (RBD, 151–290 amino acids); source: E. coli BL21 (DE3) Star, purified (HiTrap chelating column with CoCl2, TEV cleavage, Superdex 200); not shown: His10, N-terminal, cleaved; mNeonGreen, …
stoichiometry N [4]: 2

B2: pY-ITIM peptide CKTEAENTIT(pY)SLIK, conjugated to the supported membrane (peptide)
peptide: C(MCC‑PE lipid)KTEAENTIT[pY]SLIK
notes: cysteine added to the N terminus for coupling to the maleimide lipid; also called membrane-conjugated pY-ITIM peptides; pY-conjugated peptide; source: synthetic peptide (Elim Biopharmaceuticals), covalently coupled to MCC-PE lipids of the supported membrane
binding result (mNG-SHIP1(FL)): binds

Molecule: B3
stoichiometry N [5]: 2

The next lines start with the values.

estimated fraction existing as dimers (corrected for mNG maturation) (mNG-SHIP1(ΔCTD) (human) [1]): 26%
fraction of legitimate dimers with two mNG visible (mNG-SHIP1(ΔCTD) (human) [1]): 13%
membrane dwell time τ1 [2]: 0.359 s
membrane dwell time τ1 (dimers only) [2]: 1.79 s
membrane dwell time τ2 [2]: 1.83 s
stoichiometry N (mNG-SHIP1(ΔCTD) (human) [3]): 2
Molecule: mNG-SHIP1(ΔCTD) (domain or fragment)

membrane dwell time τ1 [2]: 0.409 s
Molecule: mNG-mSHIP1(ΔCTD) (domain or fragment)
